Test [1] has as its target T1, apolipoprotein C-I (mouse), P34928.
T1 chain: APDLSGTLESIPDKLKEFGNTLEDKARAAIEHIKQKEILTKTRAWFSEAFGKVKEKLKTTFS
In words: ratio of MS intensity on L-form beads to that on D-form (C10-KR8d) beads.

Test [2] has as its target T2, apolipoprotein A-I (mouse), Q00623.
T2 chain: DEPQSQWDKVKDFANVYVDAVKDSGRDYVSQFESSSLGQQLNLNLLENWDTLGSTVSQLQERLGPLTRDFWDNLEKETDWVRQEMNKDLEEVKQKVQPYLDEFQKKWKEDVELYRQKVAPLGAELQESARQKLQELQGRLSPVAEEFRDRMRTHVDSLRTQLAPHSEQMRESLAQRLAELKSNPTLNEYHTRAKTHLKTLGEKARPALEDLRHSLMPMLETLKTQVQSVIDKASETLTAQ
Described as above.

In test [3] the target is T3, apolipoprotein A-IV (mouse), P06728.
T3 chain: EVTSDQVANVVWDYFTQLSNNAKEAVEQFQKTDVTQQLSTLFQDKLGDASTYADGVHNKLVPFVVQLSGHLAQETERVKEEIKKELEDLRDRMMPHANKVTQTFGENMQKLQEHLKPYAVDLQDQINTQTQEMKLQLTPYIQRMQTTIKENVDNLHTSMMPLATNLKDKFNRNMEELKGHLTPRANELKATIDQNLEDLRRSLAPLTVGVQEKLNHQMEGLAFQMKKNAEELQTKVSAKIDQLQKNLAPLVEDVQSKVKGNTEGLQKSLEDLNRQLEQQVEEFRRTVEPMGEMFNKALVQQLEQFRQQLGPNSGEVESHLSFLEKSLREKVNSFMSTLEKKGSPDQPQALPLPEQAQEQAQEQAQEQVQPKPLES
The test is described as above.

The target in test [4] is serum albumin (mouse), P07724. The description is as above.
For test [5], the target named is T1, apolipoprotein C-I (mouse), P34928. Nature of the test: peptide on Dynabeads, 5% mouse plasma, LC-MS/MS.
Test [6] concerns the target T2, apolipoprotein A-I (mouse), Q00623. In words: peptide on Dynabeads, 5% mouse plasma, LC-MS/MS.
The target of test [7] is T3, apolipoprotein A-IV (mouse), P06728. Nature of the test: peptide on Dynabeads, 5% mouse plasma, LC-MS/MS.
In test [8] the target is serum albumin (mouse), P07724. Nature of the test: peptide on Dynabeads, 5% mouse plasma, LC-MS/MS.

Sequence of serum albumin (mouse), P07724 (P07724 25-608 limits assumed): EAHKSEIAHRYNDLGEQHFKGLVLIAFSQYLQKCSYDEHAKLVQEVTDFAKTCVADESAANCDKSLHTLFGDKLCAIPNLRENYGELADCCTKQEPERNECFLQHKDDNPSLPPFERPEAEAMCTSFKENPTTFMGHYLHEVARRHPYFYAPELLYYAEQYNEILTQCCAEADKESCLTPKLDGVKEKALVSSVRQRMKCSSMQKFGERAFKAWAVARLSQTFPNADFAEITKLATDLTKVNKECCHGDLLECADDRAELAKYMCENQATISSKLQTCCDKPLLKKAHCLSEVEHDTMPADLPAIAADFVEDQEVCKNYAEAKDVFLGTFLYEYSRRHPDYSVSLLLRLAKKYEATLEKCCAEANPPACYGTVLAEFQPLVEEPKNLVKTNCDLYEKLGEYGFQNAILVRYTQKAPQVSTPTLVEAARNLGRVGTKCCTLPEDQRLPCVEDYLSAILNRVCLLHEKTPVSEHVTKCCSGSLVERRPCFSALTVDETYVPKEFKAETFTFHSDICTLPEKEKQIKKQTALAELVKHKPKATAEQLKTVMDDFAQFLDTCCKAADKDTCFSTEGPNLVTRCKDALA

B1: C10-KR8 (L-form), with a cysteine at the N-terminus, immobilized on Dynabeads M-370 amine via SM(PEG)4 cross-linker (peptide)
peptide: CKRIWQRIK
modifications: not checked
Regarding B1, the L/D Ratio in test [1] was determined as 2.08; in test [2], 3.54; in test [3], 2.89; in test [4] it was 2.28. Moreover, the intensity (mass spectrometry) in test [5] amounted to 4.35e+08; in test [6], 4.29e+09; in test [7] it was 3.21e+08; in test [8], 3.72e+10.

Source of the values: US20240294572A1, “Antimicrobial Peptides” (priority 2021, published 2024).
